# Assay results as given in the RNAGym collection of RNA variant scans (doi:10.1073/pnas.2313332121).
# Fewer inactive variants are shown than the library holds.
# B1: TPR 5TU (parent)
# chain: GGAUCUUCUCGAUCUAACAAAAAAGACAAAUCUGCCACAAAGCUUGAGAGCAUCUUCGGAUGCAGAGGCGGCAGCCUUCGGUGGCGCGAUAGCGCCAACGUUCUCAACUAUGACACGCAAAACGCGUGCUCCGUUGAAUGGAGUUUAUCAUG
# Variants of: B1
# Experiment: polymerase ribozyme fitness, log enrichment relative to wild type (log ratio); higher = more active; in vitro selection for triplet polymerase activity
# Summary of the method: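 One round of in vitro selection, in triplicate, was applied to PCR-built, transcribed mutant libraries of each subunit of a heterodimeric triplet polymerase ribozyme. The steps were annealing with a biotinylated primer, partner subunit and triplets, incubation frozen at −7 °C, gel excision of extended constructs, streptavidin-bead capture and RT-PCR. Fitness is the logarithm, base 2, of genotype enrichment over wild-type enrichment from inverse-variance-weighted replicate averages of Illumina-sequenced inputs and outputs, keeping genotypes with ≥10 input reads and ≥1 read per output.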
row,Variant,polymerase ribozyme fitness (log ratio)
1,A29C U53A G84C C93U A121G C125G,≤ -4.2
2,U31C,0.947
3,U31G,0.749
4,U31A,0.37
5,A30U G74A C93G C103A A106G A113U,≤ -4.2
6,A29U G84U U135A,≤ -4.2
7,U31A U55A C95U G128U A137C G143U,≤ -4.2
8,A29U C76A C87A C93A C129A,≤ -4.2
9,A30C U53A U78G G84U A137G,≤ -4.2
10,C32G C87A A115C,≤ -4.2
11,C32G A39G G58U G143C,-4.1
12,U31G C32U C72A C123G G152A,≤ -4.2
13,U31G G94U A119U,-0.547
14,U31A G58A U61A G84U A89C,-3.15
15,A30U C51G A98U G136U,≤ -4.2
16,A30G A138G,≤ -4.2
17,C32G C93G,≤ -4.2
18,A29U G84A,≤ -4.2
19,U31A C75G C76G C96A U145G,≤ -4.2
20,C32G A49C U53A C85U G86U C99A A138G A150G,-4.03
21,U31A C43U U44G G62A G71A U90G A91C,≤ -4.2
22,C32U G50U C95A C131U G143A U151C,≤ -4.2
23,A30G C32A C43A C93A C105A,≤ -4.2
24,U31A C95G C125A,-1.34

row,Variant,polymerase ribozyme fitness (log ratio)
1,C32U U77G C103G A138U,≤ -4.2
2,U31A A106G,0.863
3,A30G G50C C76U C103G,≤ -4.2
4,C32U C87G A142U,≤ -4.2
5,A30C C95G A119U C132U,≤ -4.2
6,A30U G94C A121G,-3.43
7,U31A U134A,-1.82
8,A29U G48A U61G G84U C85A C105U G126U,≤ -4.2
9,C32G A41C C75U,≤ -4.2
10,A30C A52G A106C U146C,≤ -4.2
11,C32U G59A,-1.99
12,A29G U31C C36U C54G U82C G86C C93U,≤ -4.2
13,C32G G59C C96A U144A,≤ -4.2
14,A29G G50A G67U C75G C85A C123G C125G C132U A142C,≤ -4.2
15,U31A C54A G84U C85U,-2.6
16,A29U A37G C54U C87G C116A,≤ -4.2
17,A29U A40U G68U C69U G92A G140C,≤ -4.2
18,A30U C69U C85U A106G C123U A137G,≤ -4.2
19,A29U C35G G71C,≤ -4.2
20,U31G G59A,0.625
21,A29U A39C A40U U45G U77G,≤ -4.2
22,A29U A40G,-4.2
23,A30C C35U G59A G88U G117A,≤ -4.2
24,C32G G59C A66G U102A,≤ -4.2

row,Variant,polymerase ribozyme fitness (log ratio)
1,A29U U31A U56G A66G C96U C105A A138U,≤ -4.2
2,A30U U56G U82C G84U C95U,≤ -4.2
3,U31A A49C C93U C118A A121U,≤ -4.2
4,U31C C116A,1.96
5,C32U A52G U55G G94C,-3.43
6,A30C A52C G83U G84C U135A G141C,≤ -4.2
7,A30G A66G C108G,≤ -4.2
8,A30C C87G C99G C132A G140U,≤ -4.2
9,U31G G59U A138U,≤ -4.2
10,A30C C35U G88U C116G,-3.99
11,A29U C36A A47C C118U U146C,≤ -4.2
12,C32U U82C,-1.74
13,A29U G71C C93U U109G G124C,≤ -4.2
14,C32G C87U,-3.63
15,A30C U55G C95A U135G U148A,-3.85
16,C32U G59C A89C G94C,-3.87
17,A30U A49C G58A A119C G128U U134G,≤ -4.2
18,A30G U82G A122G U146G,-4.18
19,C32G G59A G83A A98C A110G,-4.09
20,C32G A91C G117U A137U,≤ -4.2
21,A30C C79U A91G C114U G136C,≤ -4.2
22,A29G A60C A89G A110U G143A,≤ -4.2
23,U31G G83A A138G,≤ -4.2
24,U31A A49C C99G C108G,≤ -4.2

row,Variant,polymerase ribozyme fitness (log ratio)
1,A30U A73U A98U U135G,≤ -4.2
2,A29U C103U,≤ -4.2
3,U31C A49C G94U A121U,≤ -4.2
4,A30C U31G U82A G92C C103A U134G,≤ -4.2
5,A30U C54A U55G G86C C105A A119G G136U A142U,≤ -4.2
6,U31G C38G U101G U139C U146G,-4.03
7,A30U U134C,-3.45
8,A30G C79U G124U U135A,≤ -4.2
9,A29U A91U,≤ -4.2
10,A30G G74U C93A U102C U127G C129G U144G,≤ -4.2
11,C32U G46U C103G U104G A107C G140C,≤ -4.2
12,U31A C93U,0.0654
13,U31C U45A G70C G92C,≤ -4.2
14,A30G A41C,-3.51
15,U31G C54U U109G A137G,-2.71
16,U31G C54A G88A G126A G141A,≤ -4.2
17,A29U U101G U104G,≤ -4.2
18,A30U C87U,-3.22
19,A30C G92A U104A A106C C108A,≤ -4.2
20,A29U C54G U56G A60G,≤ -4.2
21,U31C A98U U134A,-1.41
22,C32G U56A C57A C114G,-4.19
23,C32A A37C,≤ -4.2
24,A30G C38A C57A G58C U78G A97G U101C U102G,≤ -4.2

row,Variant,polymerase ribozyme fitness (log ratio)
1,C32U U45A C54A G84A C85A G92A C93A,≤ -4.2
2,C32U U44A G50U U78C G83U A120G,≤ -4.2
3,C32G U55A C79A C116G C149A,≤ -4.2
4,C32G U82G,≤ -4.2
5,A29G U56A U77C,≤ -4.2
6,C32G U53A C79U G140U,-4.06
7,A29G U55G G94A C108A A119G,≤ -4.2
8,A29U U104C,-4.14
9,C32A C36G A47G C72G A89G A91G,≤ -4.2
10,C32G C57U G80C G86C G152U,≤ -4.2
11,A30G C75G C93U A121G,≤ -4.2
12,C32U A52C U55G C118U,≤ -4.2
13,A29C U44A G59U C72U C131G,≤ -4.2
14,A30C G46U G94U G143A,≤ -4.2
15,U31C U56G C123A G136C,-2.61
16,C32A C85G,≤ -4.2
17,A30G A47G U56A G71C G117U A150U,≤ -4.2
18,A29U A64C C85G,≤ -4.2
19,U31C U45A A97U G117A,-4.09
20,C32U A37G G46U U77C G86C A115G A119U,≤ -4.2
21,C32G G50U C79G G88U G94C U101C C125A,≤ -4.2
22,U31C C35U A41G C54U G86C,-2.75
23,A30G U44A A49U C87U G88A G92A A115U,≤ -4.2
24,C32A C51G C72U C85G A97C U101G,≤ -4.2

row,Variant,polymerase ribozyme fitness (log ratio)
1,A29U G50C A52C A64C U77C G92C G94A C95A A115C U139G,≤ -4.2
2,A30G A49C C93G,≤ -4.2
3,U31G A40U G48A G84A C87U A119U,≤ -4.2
4,C32G C35U C72G A106C,≤ -4.2
5,C32U G46A C51G U53C G67C G86U U101G A138U,≤ -4.2
6,C32G C36U C69U,≤ -4.2
7,U31G A91U,-4.03
8,A29G A30U C43U G50A G67U C79G G88U C99A G141A,≤ -4.2
9,A30G A49C G88U A110G,≤ -4.2
10,A29U G59U C93U,≤ -4.2
11,U31C A41G A66C G68C C95G,≤ -4.2
12,U31A G70A C76A C96U,≤ -4.2
13,U31C C36G U56A G70C G94A C129G,-3
14,A29U G42U G84U C114A,≤ -4.2
15,C32U U55A,-1.62
16,C32U U55G,-1.52
17,A29U G59A G140A,≤ -4.2
18,A29U U53A,-4.15
19,A29U U53C,≤ -4.2
20,A30C A41C C43U U53A C93U C125U A137G,≤ -4.2
21,A30U U101G,-3.89
22,A30U G58A C87U U90G U101A A110C G112A G126U,≤ -4.2
23,U31A A40G U44G G141C,-4.06
24,C32G U53C C76A,-4.09

row,Variant,polymerase ribozyme fitness (log ratio)
1,A30U C69G C79A C87G G126A G140C,≤ -4.2
2,U31C C32A G80C G81A A115C C118G G133A,≤ -4.2
3,U31C U44A G94C C96G U102G U151C,≤ -4.2
4,A30C C36G U77G C116U C125U G133C,≤ -4.2
5,A30G A41U C69G C76U G94U U102G U130C,≤ -4.2
6,U31C A97G U135C U146C,-1.76
7,U31G G71U,≤ -4.2
8,A29U U45A G94C C105A A113U U130G U135G,≤ -4.2
9,C32U A52C U55G C57A,-3.11
10,A30U A52C U82A U101A G128A G136U G141C,≤ -4.2
11,A30U G94C A150U,-3.55
12,U31G A89G C95U,-1.41
13,U31C G34A C69G C85U U134C,-1.39
14,A29U A37C G80A G88C G133U,≤ -4.2
15,C32U C57U A121U C125U,-1.52
16,A29U U44G A49C C103G G141C,≤ -4.2
17,A30C G42A C54U G58A U90G C93G C96U C125A U148A,≤ -4.2
18,A29G C95G U127G,≤ -4.2
19,A29U A37U C72G C95U C114U G143U,≤ -4.2
20,A29U A49C G68U A73C A91C C103G,≤ -4.2
21,A29U A89U G94A C116G G141A,≤ -4.2
22,A29U G46U G70U U90G C95U A115G G117U A120U,≤ -4.2
23,A30G C85U U134C,-3.93
